Changes are numbered by the printed parent chain. In names and notes the source's numbering stands.

The data set “SEC” concerns the molecule itself. Briefly: SEC. Background: In gel filtration, larger molecules generally elute earlier.
The data set “crystal structure” deals with the molecule itself. Briefly: crystal structure.

B1: ArnB (wild type) of Salmonella typhimurium (enzyme, S. typhimurium, UniProt Q8ZNF3 1-385, looked up)
chain: MAEGKMMSDFLPFSRPAMGAEELAAVKTVLDSGWITTGPKNQELEAAFCRLTGNQYAVAVSSATAGMHIALMALGIGEGDEVITPSMTWVSTLNMIVLLGANPVMVDVDRDTLMVTPEHIEAAITPQTKAIIPVHYAGAPADLDAIYALGERYGIPVIEDAAHATGTSYKGRHIGARGTAIFSFHAIKNITCAEGGIVVTDNPQFADKLRSLKFHGLGVDAWDRQSGGRAPQAEVLAPGYKYNLPDLNAAIALAQLQKLDALNARRAAIAAQYHQAMADLPFQPLSLPSWEHIHAWHLFIIRVDEARCGITRDALMASLKTKGIGTGLHFRAAHTQKYYRERFPTLTLPDTEWNSERICSLPLFPDMTESDFDRVITALHQIAGQ
As for B1, the stoichiometry N (as a rule, a count of units in the complex or per binding partner) in “SEC” was 2.

B2: ArnB K188A mutant of Salmonella typhimurium (enzyme, S. typhimurium, UniProt Q8ZNF3 1-385, looked up)
chain: B1 chain with K188A
B2: the binding result in “crystal structure” is listed as “binds”.

The values above are taken from paper PMC3985747 (Biochemistry, 2014).
